What was measured:
[1] = target: T1, Human IL-2RA (IL-2Rα/CD25) protein (human, UniProt P01589 22-217, limits assumed); experiment: SPR (Biacore, receptor immobilised on CM5 chip, IL-2 as analyte)
T1 construct: Receptor protein used as SPR ligand
T1 sequence (looked up): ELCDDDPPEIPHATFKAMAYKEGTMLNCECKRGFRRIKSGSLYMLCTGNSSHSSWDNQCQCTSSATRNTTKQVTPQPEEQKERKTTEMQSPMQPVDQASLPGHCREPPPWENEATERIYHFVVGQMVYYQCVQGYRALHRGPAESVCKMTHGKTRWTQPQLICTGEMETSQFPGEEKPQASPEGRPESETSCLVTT
Experimental: (§1) The human IL-2 receptors used in this study included IL-2Rα/CD25, IL-2Rβ/CD122, common γ receptor/CD132, IL-2Rβ&IL-2Rγ heterodimer protein, and IL-2Rβ&IL-2Rα&IL-2Rγ protein. The IL-2 receptor proteins were immobilized on a Biacore™ sensor chip CM5 according to manufacturer's protocol. […] The resulting sensorgrams were analyzed with the native instrument software to calculate the binding affinities.

[2] = target: T2, Human IL-2RB (IL-2Rβ/CD122) protein (human, UniProt P14784 27-239); experiment: as above
T2 construct: Receptor protein used as SPR ligand
T2 sequence (looked up): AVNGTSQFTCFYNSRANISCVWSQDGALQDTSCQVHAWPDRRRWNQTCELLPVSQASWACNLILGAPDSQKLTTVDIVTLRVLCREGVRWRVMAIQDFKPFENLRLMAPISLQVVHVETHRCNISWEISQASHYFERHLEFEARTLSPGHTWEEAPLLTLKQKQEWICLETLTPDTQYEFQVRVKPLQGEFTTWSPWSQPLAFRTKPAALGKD
Experimental: as §1

[3] = target: T3, Human IL-2RG (common γ receptor/CD132) protein (human, UniProt P31785 23-262, limits assumed); experiment: as above
T3 construct: Receptor protein used as SPR ligand
T3 sequence (looked up): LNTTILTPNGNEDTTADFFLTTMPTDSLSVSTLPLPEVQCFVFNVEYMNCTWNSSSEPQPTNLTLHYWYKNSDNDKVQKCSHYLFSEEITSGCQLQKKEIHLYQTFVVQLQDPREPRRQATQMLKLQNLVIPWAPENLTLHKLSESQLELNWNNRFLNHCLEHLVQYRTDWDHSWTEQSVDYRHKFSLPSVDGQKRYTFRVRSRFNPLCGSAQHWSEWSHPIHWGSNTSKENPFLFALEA
Experimental: as §1

[4] = target: T4, human intermediate-affinity IL-2 receptor IL-2Rβγ on cells (human, UniProt P14784 27-551; P31785 23-369); experiment: cell-based or functional assay
T4 sequence (looked up) 1: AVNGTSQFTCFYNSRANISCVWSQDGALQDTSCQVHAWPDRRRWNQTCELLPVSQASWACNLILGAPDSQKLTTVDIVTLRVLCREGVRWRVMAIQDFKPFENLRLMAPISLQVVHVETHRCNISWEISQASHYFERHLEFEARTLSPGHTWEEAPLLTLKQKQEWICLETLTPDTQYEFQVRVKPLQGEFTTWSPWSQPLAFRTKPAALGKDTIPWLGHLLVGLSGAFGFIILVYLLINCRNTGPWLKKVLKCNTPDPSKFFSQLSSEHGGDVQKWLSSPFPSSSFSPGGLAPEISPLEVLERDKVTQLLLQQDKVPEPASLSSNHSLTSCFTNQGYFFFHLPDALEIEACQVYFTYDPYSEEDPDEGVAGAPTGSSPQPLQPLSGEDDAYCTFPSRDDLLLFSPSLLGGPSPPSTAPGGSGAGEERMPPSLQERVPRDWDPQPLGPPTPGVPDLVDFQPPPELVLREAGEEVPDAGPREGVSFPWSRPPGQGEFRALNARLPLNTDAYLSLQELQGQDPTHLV
T4 sequence (looked up) 2: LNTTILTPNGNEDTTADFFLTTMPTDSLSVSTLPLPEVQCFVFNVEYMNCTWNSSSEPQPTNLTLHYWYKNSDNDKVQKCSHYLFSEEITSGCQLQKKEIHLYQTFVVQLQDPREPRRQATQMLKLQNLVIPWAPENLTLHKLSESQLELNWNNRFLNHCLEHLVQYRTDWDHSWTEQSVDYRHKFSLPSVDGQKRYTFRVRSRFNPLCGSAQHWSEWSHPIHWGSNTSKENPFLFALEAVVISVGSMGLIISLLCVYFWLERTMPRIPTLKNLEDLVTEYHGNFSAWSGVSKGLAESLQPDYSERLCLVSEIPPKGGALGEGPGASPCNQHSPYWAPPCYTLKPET

- binding result [1]: no binding (tested: 0.977-250 nM)
- binding result [2]: no binding (tested: 7.813-250 nM)
- binding result [3]: no binding (tested: 0.977-500 nM)
- EC50 (read off the curve): STAT5 phosphorylation in HH cells [4]: ~6 nM
B1: CP-trIL-2 012 (ligand)
chain: PTSSSTKKTQLQLEHLLLDLQMILNGINNYKNPLRPRDLISNINVIVLELKGSETTELKHLQSLEEELKDLEEVLNLAQSKNFHTIVEFLNRWITFSQSIISTLT
notes: H1-H3-H2-H4; loops 1 and 2 removed; de-Ala1, C58S, C125S, P65D
